This is an account of results in patent publication US20100113582A1.

In assay [1] the target is HIV-PRR87K^YFP (HIV-1 (HIV-1NL4-3)) (UniProt P12497). The assay can be described thus: FRET-HIV-1 assay, co-transfected Cos-7 cells.
The target of assay [2] is HIV-PRT26A^YFP (HIV-1 (HIV-1NL4-3)) (UniProt P12497). In words: FRET-HIV-1 assay, co-transfected Cos-7 cells.
For assay [3], the target named is HIV-PRD29N^YFP (HIV-1 (HIV-1NL4-3)) (UniProt P12497). In words: FRET-HIV-1 assay, co-transfected Cos-7 cells.
For assay [4], the target named is HIV-PRD29A^YFP (HIV-1 (HIV-1NL4-3)) (UniProt P12497). The assay can be described thus: FRET-HIV-1 assay, co-transfected Cos-7 cells.
Assay [5] concerns the target YFP-tagged wild-type HIV-1 protease subunit (PRWT^YFP) (HIV-1 (HIV-1NL4-3)) (UniProt P12497). In words: FRET, acceptor photobleaching, co-transfected Cos-7 cells.
The target is the same in assay [6]. The assay can be described thus: FRET, acceptor photobleaching, co-transfected Cos-7 cells (n=23).
For assay [7] the target is unchanged. In words: FRET, acceptor photobleaching, co-transfected Cos-7 cells, no-drug control of FIG. 2D.
For assay [8] the target is unchanged. In words: FRET, acceptor photobleaching, co-transfected Cos-7 cells, no-drug control of FIG. 2F.

For “HIV-PRR87K^CFP (from UniProt P12497) (enzyme)”, in assay [1], the average CFP A/B ratio is less than 1.
Turning to “HIV-PRT26A^CFP (from UniProt P12497) (enzyme)”, the average CFP A/B ratio in assay [2] was less than 1.
Take “HIV-PRD29N^CFP (from UniProt P12497) (enzyme)”: the average CFP A/B ratio in assay [3] was less than 1.
Consider “HIV-PRD29A^CFP (from UniProt P12497) (enzyme)”, for which, in assay [4], the average CFP A/B ratio is less than 1.
With “CFP-tagged wild-type HIV-1 protease subunit (PRWT^CFP) (from UniProt P12497) (enzyme)”, in assay [5], the CFP^A/B ratio came out at 1.38, the YFP^A/B ratio worked out at 0.17 and the ratio of CFP fluorescence after photobleaching to CFP fluorescence prior to photobleaching was 1.19. Also, in assay [6], the CFP^A/B ratio is 1.24 and the YFP^A/B ratio stood at 0.47. In addition, the ratio of ECFP fluorescence after photobleaching to before photobleaching in assay [7] is 1.27. For the same substance, the FRET ratio in assay [8] worked out at 1.29.
